Measured values: patent US20110159513A1
Read-outs that look alike come from different tables or passages of the source.

Assays:
Test in all cases: cell-based or functional assay
ErbB1 on NCI-ADRr cells [1] = biological target: ErbB1 on NCI-ADRr cells (UniProt P00533)
ErbB1 on NCI-ADRr cells [2] = biological target: ErbB1 on NCI-ADRr cells (UniProt P00533); remark: listed apart in the source
[3] = biological target: ErbB3 on tumour cells (NCI-ADRr, OVCAR8, OVCAR8-HER2) (UniProt P21860)

Work on “betacellulin (from UniProt P35070 32-111) (ligand)” yielded a pErbB1 EC50 [nM], NCI-ADRr (ErbB1 on NCI-ADRr cells [1]) of 5.7 nM.

Molecule “heparin-binding epidermal growth factor (from UniProt Q99075 63-148) (ligand)” has a pErbB1 % stimulation at 5 min relative to maximum (ErbB1 on NCI-ADRr cells [1]) of 87% and a pErbB1 EC50 [nM], NCI-ADRr (ErbB1 on NCI-ADRr cells [1]) of 21 nM.

For “transforming growth factor alpha (from UniProt P01135 40-89) (ligand)”, the pErbB1 EC50 [nM], NCI-ADRr (ErbB1 on NCI-ADRr cells [1]) was 30 nM.

B1: amphiregulin (ligand, UniProt P15514 101-198, looked up)
chain: SVRVEQVVKPPQNKTESENTSDKPKRKKKGGKNGKNRRNRKKKNPCNAEFQNFCIHGECKYIEHLEAVTCKCQQEYFGERCGEKSMKTHSMIDSSLSK
In the case of B1, the pErbB1 % stimulation at 5 min relative to maximum (ErbB1 on NCI-ADRr cells [2]) is reported as 95% and the pErbB1 EC50 [nM], NCI-ADRr (ErbB1 on NCI-ADRr cells [2]) is reported as 37 nM.

B2: Epigen (ligand, UniProt Q6UW88 23-104, looked up)
chain: AAVTVTPPITAQQGNWTVNKTEADNIEGPIALKFSHLCLEDHNSYCINGACAFHHELEKAICRCFTGYTGERCEHLTLTSYA
B2 was tested, and the pErbB1 % stimulation at 5 min relative to maximum (ErbB1 on NCI-ADRr cells [2]) was 12%.

B3: heregulin HRG1-β (ligand, UniProt Q02297-6 177-241, looked up)
chain: SHLVKCAEKEKTFCVNGGECFMVKDLSNPSRYLCKCPNEFTGDRCQNYVMASFYKHLGIEFMEAE
For B3, the pErbB3 % stimulation at 5 min relative to maximum [3] was 100% and the pErbB3 EC50 [nM], NCI-ADRr [3] was 9.9 nM.
